Measured values reported in the supplement of paper PMC9112550, “Optimization of the antimicrobial peptide Bac7 by deep mutational scanning” (BMC Biology, 2022).

System: Escherichia coli TOP10
Test: shrunken log2 fold change of peptide-encoding DNA abundance (4.5 h post-induction vs induction); higher = less antimicrobial activity (less host growth inhibition)
Conditions: time post-induction: 4.5 h; library: site-saturation at positions 5, 18, 19, 20
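Further: peptides expressed intracellularly from a pBAD plasmid library in pooled LB shake-flask culture, induced with 0.3% L-arabinose, DNA abundance read by NGS, three biological replicates, DESeq2 with apeglm shrinkage.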

Sequence	shrunken log2 fold change
RRIRWRPPRLPRPRPRPIYFPRP	-0.198
RRIRMRPPRLPRPRPRPLNLPRP	-0.0841
RRIRKRPPRLPRPRPRPTKDPRP	0.522
RRIRCRPPRLPRPRPRPQILPRP	-0.354
RRIRPRPPRLPRPRPRPQCRPRP	0.00385
RRIRDRPPRLPRPRPRPSSAPRP	0.0666
RRIRRRPPRLPRPRPRPLIYPRP	0.431
RRIRARPPRLPRPRPRPLNYPRP	0.0659
RRIRKRPPRLPRPRPRPYREPRP	-0.0243
RRIRDRPPRLPRPRPRPQMWPRP	-0.23
RRIRGRPPRLPRPRPRPCAFPRP	2.03
RRIRRRPPRLPRPRPRPKWWPRP	0.579
RRIRFRPPRLPRPRPRPQKEPRP	0.172
RRIRTRPPRLPRPRPRPWLYPRP	-0.161
RRIRKRPPRLPRPRPRPKVYPRP	-0.124
RRIRGRPPRLPRPRPRPASTPRP	0.653
RRIRVRPPRLPRPRPRPAHAPRP	0.068
RRIRNRPPRLPRPRPRPVEVPRP	-0.296
RRIRWRPPRLPRPRPRPSLNPRP	-0.0829
RRIRKRPPRLPRPRPRPDVDPRP	1.8
RRIRQRPPRLPRPRPRPFSPPRP	-0.0643
RRIRIRPPRLPRPRPRPPGCPRP	0.354
RRIRFRPPRLPRPRPRPDDPPRP	0.212
RRIRDRPPRLPRPRPRPRMIPRP	-0.237
RRIRVRPPRLPRPRPRPGCPPRP	0.181

Sequence	shrunken log2 fold change
RRIRTRPPRLPRPRPRPLELPRP	-0.176
RRIRFRPPRLPRPRPRPKLSPRP	-0.258
RRIRVRPPRLPRPRPRPDPGPRP	-0.321
RRIRCRPPRLPRPRPRPCNQPRP	-0.412
RRIRKRPPRLPRPRPRPVACPRP	-0.0228
RRIRFRPPRLPRPRPRPATNPRP	-0.213
RRIRYRPPRLPRPRPRPPVIPRP	-0.0623
RRIRKRPPRLPRPRPRPDHHPRP	-0.37
RRIRRRPPRLPRPRPRPPRCPRP	1.49
RRIRHRPPRLPRPRPRPTVQPRP	0.118
RRIRWRPPRLPRPRPRPRRVPRP	0.122
RRIRMRPPRLPRPRPRPPDPPRP	1.25
RRIRRRPPRLPRPRPRPFITPRP	-0.257
RRIRVRPPRLPRPRPRPCATPRP	0.0911
RRIRGRPPRLPRPRPRPIVLPRP	-0.0411
RRIRQRPPRLPRPRPRPLRLPRP	0.655
RRIRLRPPRLPRPRPRPYWCPRP	-0.00992
RRIRWRPPRLPRPRPRPKCNPRP	0.136
RRIRTRPPRLPRPRPRPHHTPRP	-0.474
RRIRGRPPRLPRPRPRPWHCPRP	-0.0173
RRIRSRPPRLPRPRPRPTQCPRP	0.23
RRIRCRPPRLPRPRPRPYDDPRP	-0.396
RRIRWRPPRLPRPRPRPFAMPRP	-0.148
RRIRHRPPRLPRPRPRPMFAPRP	-0.245
RRIRHRPPRLPRPRPRPQRPPRP	0.183

Sequence	shrunken log2 fold change
RRIRWRPPRLPRPRPRPVHGPRP	0.492
RRIRRRPPRLPRPRPRPTNFPRP	-0.125
RRIRLRPPRLPRPRPRPDETPRP	-0.0184
RRIRFRPPRLPRPRPRPFHPPRP	0.039
RRIRLRPPRLPRPRPRPGASPRP	0.642
RRIRGRPPRLPRPRPRPNRAPRP	0.43
RRIRSRPPRLPRPRPRPMGIPRP	0.0414
RRIRARPPRLPRPRPRPEMGPRP	1.12
RRIRKRPPRLPRPRPRPCGRPRP	0.0548
RRIRMRPPRLPRPRPRPGMLPRP	-0.0146
RRIRFRPPRLPRPRPRPMAAPRP	-0.0736
RRIRFRPPRLPRPRPRPLAHPRP	-0.13
RRIRLRPPRLPRPRPRPFMNPRP	-0.217
RRIRRRPPRLPRPRPRPTRFPRP	1.08
RRIRDRPPRLPRPRPRPFKDPRP	-0.00443
RRIRVRPPRLPRPRPRPRFVPRP	0.12
RRIRWRPPRLPRPRPRPDAKPRP	0.0403
RRIRCRPPRLPRPRPRPAVYPRP	0.0903
RRIRCRPPRLPRPRPRPEKSPRP	0.0445
RRIRQRPPRLPRPRPRPTWYPRP	-0.174
RRIRYRPPRLPRPRPRPIVMPRP	-0.254
RRIRRRPPRLPRPRPRPQINPRP	0.0135
RRIRNRPPRLPRPRPRPTTKPRP	-0.0801
RRIRHRPPRLPRPRPRPMFGPRP	-0.000925
RRIRCRPPRLPRPRPRPLEGPRP	0.15

Sequence	shrunken log2 fold change
RRIRRRPPRLPRPRPRPWFCPRP	-0.101
RRIRPRPPRLPRPRPRPKIPPRP	-0.408
RRIRVRPPRLPRPRPRPDRCPRP	0.0141
RRIRCRPPRLPRPRPRPVHTPRP	0.101
RRIRARPPRLPRPRPRPQQPPRP	0.0738
RRIRKRPPRLPRPRPRPDITPRP	2.24
RRIRVRPPRLPRPRPRPTYIPRP	-0.51
RRIRGRPPRLPRPRPRPGFTPRP	0.11
RRIRRRPPRLPRPRPRPQFKPRP	-0.145
RRIRSRPPRLPRPRPRPIINPRP	-0.565
RRIRARPPRLPRPRPRPAARPRP	0.828
RRIRKRPPRLPRPRPRPTHQPRP	0.612
RRIRFRPPRLPRPRPRPYSMPRP	-0.417
RRIRERPPRLPRPRPRPVWLPRP	-0.0259
RRIRKRPPRLPRPRPRPRPFPRP	0.612
RRIRGRPPRLPRPRPRPTSIPRP	0.129
RRIRWRPPRLPRPRPRPTDYPRP	0.233
RRIRRRPPRLPRPRPRPGSRPRP	0.155
RRIRERPPRLPRPRPRPVHIPRP	-0.202
RRIRYRPPRLPRPRPRPFASPRP	-0.000244
RRIRARPPRLPRPRPRPAGPPRP	0.453
RRIRIRPPRLPRPRPRPLRAPRP	0.367
RRIRHRPPRLPRPRPRPREKPRP	-0.0164
RRIRTRPPRLPRPRPRPYINPRP	-0.879
RRIRTRPPRLPRPRPRPHKNPRP	-0.415

Sequence	shrunken log2 fold change
RRIRCRPPRLPRPRPRPKGWPRP	0.811
RRIRSRPPRLPRPRPRPSGYPRP	-0.443
RRIRRRPPRLPRPRPRPCFVPRP	0.0292
RRIRPRPPRLPRPRPRPFPRPRP	0.0474
RRIRTRPPRLPRPRPRPVIYPRP	0.721
RRIRRRPPRLPRPRPRPVESPRP	0.126
RRIRSRPPRLPRPRPRPHDPPRP	-0.0194
RRIRSRPPRLPRPRPRPTWYPRP	-0.123
RRIRFRPPRLPRPRPRPKHEPRP	0.286
RRIRSRPPRLPRPRPRPIKYPRP	-0.654
RRIRPRPPRLPRPRPRPCHSPRP	-0.871
RRIRPRPPRLPRPRPRPPGIPRP	0.151
RRIRWRPPRLPRPRPRPYIWPRP	-0.477
RRIRYRPPRLPRPRPRPHFAPRP	-0.284
RRIRWRPPRLPRPRPRPRMKPRP	0.158
RRIRIRPPRLPRPRPRPKCLPRP	-0.0748
RRIRTRPPRLPRPRPRPEWQPRP	0.495
RRIRFRPPRLPRPRPRPDFMPRP	-0.27
RRIRSRPPRLPRPRPRPSEWPRP	0.0157
RRIRIRPPRLPRPRPRPNEMPRP	-0.0277
RRIRERPPRLPRPRPRPAASPRP	0.141
RRIRERPPRLPRPRPRPWNFPRP	-0.0838
RRIRCRPPRLPRPRPRPQTSPRP	-0.209
RRIRYRPPRLPRPRPRPHSCPRP	-0.00211
RRIRFRPPRLPRPRPRPDVHPRP	-0.179

Sequence	shrunken log2 fold change
RRIRMRPPRLPRPRPRPHFYPRP	-0.115
RRIRYRPPRLPRPRPRPATIPRP	-1.16
RRIRIRPPRLPRPRPRPMMEPRP	-0.599
RRIRTRPPRLPRPRPRPHHCPRP	-0.12
RRIRARPPRLPRPRPRPMMAPRP	0.466
RRIRFRPPRLPRPRPRPDNGPRP	-0.13
RRIRRRPPRLPRPRPRPKMDPRP	-0.0711
RRIRYRPPRLPRPRPRPAMVPRP	-0.136
RRIRTRPPRLPRPRPRPIFPPRP	0.166
RRIRPRPPRLPRPRPRPNWGPRP	-0.057
RRIRPRPPRLPRPRPRPVEWPRP	0.0458
RRIRNRPPRLPRPRPRPTGNPRP	-0.104
RRIRMRPPRLPRPRPRPWYWPRP	-0.724
RRIRKRPPRLPRPRPRPNWNPRP	-0.191
RRIRKRPPRLPRPRPRPMLDPRP	0.16
RRIRKRPPRLPRPRPRPSFNPRP	0.0137
RRIRFRPPRLPRPRPRPISIPRP	-0.697
RRIRSRPPRLPRPRPRPCECPRP	-0.0304
RRIRNRPPRLPRPRPRPGGRPRP	0.0809
RRIRWRPPRLPRPRPRPATDPRP	0.258
RRIRSRPPRLPRPRPRPCMKPRP	-1.6
RRIRMRPPRLPRPRPRPTSHPRP	0.0149
RRIRHRPPRLPRPRPRPEPNPRP	0.0235
RRIRTRPPRLPRPRPRPEREPRP	-0.00458
RRIRCRPPRLPRPRPRPKNCPRP	0.0619
